The values below come from publication PMC3374797, “Intrinsically Unstructured Domain 3 of Hepatitis C Virus NS5A Forms a “Fuzzy Complex” with VAPB-MSP Domain Which Carries ALS-Causing Mutations” (PLoS ONE, 2012).

One may read the Kd as the free concentration of one partner at which half of the binding sites on the other are occupied at equilibrium, for simple one-to-one binding.

The target of assay [1] is T1, VAPB-MSP(1–125) T46I mutant (Homo sapiens, UniProt O95292, T46I).
T1 construct: chemical shifts of VAPB-MSP(1–125) T46I mutant in the presence of unlabeled NS5A-D3C; His tag (N, cleaved yes); made in house; host or cells: Escherichia coli BL21 (DE3) Star
T1 sequence (O95292 1-125 T46I): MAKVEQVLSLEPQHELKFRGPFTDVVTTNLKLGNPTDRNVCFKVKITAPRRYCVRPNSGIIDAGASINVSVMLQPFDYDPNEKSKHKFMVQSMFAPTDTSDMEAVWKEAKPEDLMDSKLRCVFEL
Briefly: NMR HSQC titration of 15N-VAPB-MSP(1-125) T46I mutant. The format is binding. As for the experimental part:
(§1) NMR samples were prepared in 10 mM phosphate buffer in the presence of 10 mM DTT (pH 6.8). All NMR data were collected at 25°C on an 800-MHz Bruker Avance spectrometer equipped with a shielded cryoprobe as described before [70]–[73]. For HSQC characterization, samples were prepared at a protein concentration of 100 µM. For sequential assignments of NS5A-D3, triple-resonance NMR experiments including HNCACB and CBCA(CO)NH were acquired on a double-labeled sample at a protein concentration of ∼300 µM while for sequential assignments of NS5A-D3A, three-dimensional heteronuclear NMR experiments including HSQC-TOCSY and HSQC-NOESY were acquired on a ^15N-labeled sample at a protein concentration of ∼500 µM. NMR data were processed with NMRpipe and analyzed with NMRview.
(§2) For NMR HSQC characterization of the binding interactions between NS5A and VAPB fragments/domains, two-dimensional ^1H-^15N HSQC spectra of the ^15N-labeled proteins were acquired at a protein concentration of 50 µM in the absence or presence of the unlabeled binding partners at different molar ratios. By superimposing the HSQC spectra at different molar ratios, the shifted or disappeared HSQC peaks could be identified and further assigned to the corresponding residues as we previously described, [67]–[70]. The degree of perturbation was reflected by an integrated chemical shift difference (CSD) calculated by the formula ((Δ^1H)^2+(Δ^15N)^2/5)^1/2 [73]. The CSD tracings were fitted by using the one binding site model to obtain residue-specific dissociation constants (Kd); which are summarized in Table 1.

Assay [2] has as its target T2, VAPB-MSP(1–125) (Homo sapiens, UniProt O95292). Briefly: NMR HSQC titration of 15N-VAPB-MSP(1-125) with NS5A fragments, Kd fitting. The format is binding. More on the design: His tag (N, cleaved yes); made in house; host or cells: Escherichia coli BL21 (DE3) Star. Here is the method: as §1, §2
In assay [3] the target is T2, VAPB-MSP(1–125). Briefly: NMR titration.
In assay [4] the test system is VAPB-MSP T46I mutant. The following applies: ref [51]; cited from earlier work.
Assay [5] has as its target T2, VAPB-MSP(1–125). Briefly: NMR competition of EphA4 LBD with D3B for VAPB-MSP(1-125). It counts as binding. Also noted: His tag (N, cleaved yes); made in house; host or cells: Escherichia coli BL21 (DE3) Star. The following applies: MSP saturated by D3B at 1:4 (MSP/D3B); EphA4 at 1:10 (MSP:EphA4). As for the experimental part:
NMR titration and docking results all reveal that the D3B peptide is able to occupy the MSP surface regions which are also critical for binding to EphA4 receptor as we previously characterized. To confirm this, we first saturated the VAPB-MSP(1–125) by D3B at a molar ratio of 1∶4 (MSP/D3B). Subsequently the EphA4 ligand-binding domain (LBD) was gradually titrated into this sample.
NMR samples were prepared in 10 mM phosphate buffer in the presence of 10 mM DTT (pH 6.8). All NMR data were collected at 25°C on an 800-MHz Bruker Avance spectrometer equipped with a shielded cryoprobe as described before [70]–[73]. For HSQC characterization, samples were prepared at a protein concentration of 100 µM. […] NMR data were processed with NMRpipe and analyzed with NMRview.
For NMR HSQC characterization of the binding interactions between NS5A and VAPB fragments/domains, two-dimensional ^1H-^15N HSQC spectra of the ^15N-labeled proteins were acquired at a protein concentration of 50 µM in the absence or presence of the unlabeled binding partners at different molar ratios. […] The degree of perturbation was reflected by an integrated chemical shift difference (CSD) calculated by the formula ((Δ^1H)^2+(Δ^15N)^2/5)^1/2 [73]. […]

The target of assay [6] is T2, VAPB-MSP(1–125). Also noted: His tag (N, cleaved yes); made in house; host or cells: Escherichia coli BL21 (DE3) Star. The settings on record: molar ratio 1:2; ref [51]; cited from earlier work. The source says:
NMR titration and docking results all reveal that the D3B peptide is able to occupy the MSP surface regions which are also critical for binding to EphA4 receptor as we previously characterized. […] Subsequently the EphA4 ligand-binding domain (LBD) was gradually titrated into this sample.

Entries after “also recorded” stand apart in the source; their conditions may differ.

T2 sequence (O95292 1-125): as the sequence (O95292 1-125 T46I) above, with I46T counted along it

On to `CSCC[C@H](NC(=O)[C@H](CO)NC(=O)[C@H](CO)NC(=O)[C@H](Cc1ccc(O)cc1)NC(=O)[C@H](CO)NC(=O)[C@H](CCC(=O)O)NC(=O)[C@H](C)NC(=O)[C@H](CC(=O)O)NC(=O)[C@H](CO)NC(=O)CN)C(=O)N1CCC[C@H]1C(=O)N1CCC[C@H]1C(=O)N[C@@H](CC(C)C)C(=O)N[C@@H](CCC(=O)O)C(=O)NCC(=O)N[C@@H](CCC(=O)O)C(=O)N1CCC[C@H]1C(=O)NCC(=O)N[C@@H](CC(=O)O)C(=O)N1CCC[C@H]1C(=O)N[C@@H](CC(=O)O)C(=O)N[C@@H](CC(C)C)C(=O)N[C@@H](CO)C(=O)N[C@@H](CC(=O)O)C(=O)NCC(=O)N[C@@H](CO)C(=O)N[C@@H](Cc1c[nH]c2ccccc12)C(=O)N[C@@H](CO)C(=O)N[C@H](C(=O)N[C@H](C(=O)N[C@@H](CO)C(=O)N[C@@H](CCC(=O)O)C(=O)N[C@@H](CCC(=O)O)C(=O)N[C@@H](C)C(=O)N[C@@H](CO)C(=O)N[C@@H](CCC(=O)O)C(=O)N[C@@H](CC(=O)O)C(=O)N[C@H](C(=O)N[C@H](C(=O)O)C(C)C)C(C)C)C(C)C)[C@@H](C)O` [D3B], for which the “Interaction (Yes/No) with VAPB-MSP(1-125) T46I” value in assay [1] (15N-VAPB-MSP(1-125) T46I) is “Yes/Weak”. Moreover, the “HSQC perturbation of T46I mutant” value in assay [1] (molar ratio up to 1:6 (T46I/D3B)) is listed as “only a small set of T46I HSQC peaks were found to shift slightly of very small amplitude”. The “Kd for T46I mutant, statement in words” value in assay [1] (shift tracings highly unsaturated, up to 1:6 (T46I/D3B)) is given as “impossible to fit out the CSD tracings to obtain Kd values”. In addition, the “Interaction (Yes/No) with VAPB-MSP(1-125)” value in assay [2] (15N-VAPB-MSP(1-125), unlabeled NS5A fragment) is “Yes”. In addition, the “MSP residues whose HSQC peaks undergo gradual but significant shifts” value in assay [2] (molar ratio up to 1:4 (MSP/D3 peptide)) was “Gln6, Met89-Val90-Gln91, Asp116, Leu119 and Val122”. In addition, the “Binding affinity to VAPB-MSP, in words” value in assay [2] (relative to D3 (and D3A, D3B)) was “retains almost the same binding affinity and mode as the 89-residue D3”. Further, in assay [2] (words, 50 µM 15N-labelled protein), the “HSQC perturbation of VAPB-MSP(1-125)” value is “almost the same shifting pattern and similar amplitude”.
Turning to NS5A-D3(359–447) (domain or fragment), in assay [3], the Kd was found to be 4.5 µM, the residue-specific Kd (Asp116) worked out at 6.2 µM, the residue-specific Kd (Gln6) came out at 6.8 µM and the residue-specific Kd (Gln91) is 2.4 µM. In assay [3], this compound showed a residue-specific Kd (Leu119) of 4.5 µM, a residue-specific Kd (Met89) of 5.2 µM, a residue-specific Kd (Val90) of 4.6 µM and a residue-specific Kd (Val122) of 1.7 µM.
Consider NS5A-D3A(394–447) (domain or fragment), for which, in assay [3], the Kd was 8 µM, the residue-specific Kd (Asp116) was 10.2 µM, the residue-specific Kd (Gln6) stood at 11.5 µM and the residue-specific Kd (Gln91) stood at 7.1 µM. In assay [3], this compound showed a residue-specific Kd (Leu119) of 7.7 µM, a residue-specific Kd (Met89) of 9.9 µM, a residue-specific Kd (Val90) of 7.2 µM and a residue-specific Kd (Val122) of 2.4 µM.
“EphA4 LBD: 181-residue EphA4 ligand binding domain”: the “Effect of T46I mutation on binding to EphA4” value in assay [4] is “reduced affinity to EphA4; also recorded: considerably reduces the binding affinity to EphA4”. The “HSQC perturbation of MSP by EphA4 LBD with pre-existence of D3B” value in assay [5] is recorded as “only several MSP peaks were observed to shift slightly”. Moreover, the “HSQC perturbation of MSP by EphA4 LBD without D3B” value in assay [6] was “started to trigger peak shift and disappearance of the MSP residues”.
